Experimental data published in US20050064518A1 (PURDUE PHARMA L P, published 2005).

B1: monoclonal antibody 117.1 (antibody, V domains shown)
VH: QVTLKESGPGILQPSQTLSLTCSFSGFSLSTPGMGVGWIRQPSGKGLEWLAHIWWDDFKRDNPALKSRLTISKDTSSSQVFLKIASVDTADTATYYCVRVDGNFLSWYFDVWGAGTTVTVSS
VL: DAVMTQTPLSLPVSLGDQASISCRSSQSLVHSNGNTYLHWYLQKPGQSPKLLIYKVSNRFSGVPDRFSGSGSGTDFTLRISRVEAEDLGVYFCSQSRYVPWTFGGGTKLEIK
notes: Murine hybridoma antibody
B2: monoclonal antibody 501.1 (antibody, V domains shown)
VH: QIQLVQSGPELKKPGETVQISCKASGYIFTDYGMNWVKQAPGKGLKWMGCINTYTGETIYSDDFRGRFAISLETSASTAFIQINNLKNEDAATYFCARGNYRDAIDYWGQGTSVTVSS
VL: DIKMTQSPSSIYASLGERVTITCKASQDIKSYLSWYQQKPWKSPKTLIYYATTLADGVPSRFSGSGSGQDYSLIINSLESDDIATYFCLHHDESPFTFGSGTKLEI
notes: Murine hybridoma antibody
B3: monoclonal antibody 368.1 (antibody, V domains shown)
VH: EVQLQQSGPELVRTGASVKISCKASGYSFTGFYMHWVKQSLGKSLEWIGYVSCYTGATTYTQKFKGKATFTVDTSSSTAYMQLNSLTSEDSAVYYCAREGDYYSMDFWGQGTSVTVSS
VL: DVVMTQTPLSLPVSLGDQASISCRSSQSLERTNGNTYLHWYLQKPGQSPKLLIYKVSSRFSGVPDRFSGSGSGTDFTLKISRVEAEDLGIYFCSQTTHGPPTCGGGTKLEIK
notes: Murine hybridoma antibody

Biological target: T1, O772P 3-repeat recombinant protein (human)
T1 construct: Repeats are residues 14-452 of the entry
T1 chain: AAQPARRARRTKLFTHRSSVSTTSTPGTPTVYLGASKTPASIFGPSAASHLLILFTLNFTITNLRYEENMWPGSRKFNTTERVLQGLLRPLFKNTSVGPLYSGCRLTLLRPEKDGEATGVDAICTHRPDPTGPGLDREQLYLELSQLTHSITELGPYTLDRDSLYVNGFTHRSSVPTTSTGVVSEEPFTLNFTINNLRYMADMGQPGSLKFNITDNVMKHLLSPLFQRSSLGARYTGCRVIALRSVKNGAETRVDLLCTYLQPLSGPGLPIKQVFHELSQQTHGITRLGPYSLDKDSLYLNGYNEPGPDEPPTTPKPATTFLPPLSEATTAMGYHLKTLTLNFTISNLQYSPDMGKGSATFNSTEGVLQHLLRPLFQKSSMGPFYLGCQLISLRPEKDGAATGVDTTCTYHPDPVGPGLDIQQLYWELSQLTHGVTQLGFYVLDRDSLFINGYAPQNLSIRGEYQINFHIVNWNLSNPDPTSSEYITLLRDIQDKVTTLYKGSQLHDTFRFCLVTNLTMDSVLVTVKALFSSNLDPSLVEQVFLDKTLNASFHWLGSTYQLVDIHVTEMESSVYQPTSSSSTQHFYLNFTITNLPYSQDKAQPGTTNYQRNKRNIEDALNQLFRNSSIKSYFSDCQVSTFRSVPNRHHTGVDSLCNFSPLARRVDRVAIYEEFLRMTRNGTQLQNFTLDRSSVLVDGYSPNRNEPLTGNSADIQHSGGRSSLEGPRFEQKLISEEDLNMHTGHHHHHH
Assay: ELISA, plate-bound O772P 3-repeat
Procedure: On the next day, the plates were washed with 200 μl 1×PBST (1× phosphate-buffered saline (PBS), 0.05% Tween 20) three times and blocked with 100 μl of 1×PBST containing 1% bovine serum albumin (BSA) for 2 hours at 37° C. […] After 1 hour incubation at 37° C., the plates were then washed with 1×PBST three times. For signal detection, 100 μl of HRP (horseradish peroxidase)-conjugated sheep anti-mouse IgG (1:2000 dilution into 1×PBST+1% BSA; Amersham Biosciences) was added to each well and incubated for 1 hour at 37° C. The plates were again washed three times with 1×PBST. Finally, 100 μl¹ of a mixture of TMB (3,3′, 5,5′-tetramethylbenzidine) substrate and H₂O₂ (1:1 ratio, KPL Kirkguard Perry Laboratories) was added into each well and after a 5 minute incubation, the absorbance was measured at 405 nm with a plate reader (Molecular Devices Corp., Sunnyvale, Calif.). The assay was done in triplicate for each selected O772P hybridoma-produced antibody and data was collected and analyzed as a kinetic assay, measured over a 5 minute time period. Average values were calculated and presented. Controls for blank and individual reagents were also included in each experiment.

Row | Binder | absorbance (OD) | absorbance (OD)/µg Ab [OD/µg Ab]
1 | B1 | 0.619 | 15
2 | B2 | 0.856 | 21
3 | B3 | 1.29 | 32

The binders below were run against T2, CA 125/O772P on OVCAR-3 cells (human, UniProt Q8WXI7 1-14507) (assay: flow cytometry, OVCAR-3 cells; Ab 2 µg/ml).
T2 construct: whole, on cells

Row | Binder | % positive cells [%]
4 | B1 | 93
5 | B2 | 95
6 | B3 | 89

Biological target: T1, O772P 3-repeat recombinant protein
Assay: BIAcore SPR, O772P 3-repeat immobilized, mAb injected
Procedure: A […] BIAcore biosensor chip was docked into the BIAcore X instrument and activated with 55 μl of 1:1 NHS/EDC at room temperature. O772P 3-repeat region protein and BSA at 10 μg/ml in 0.05 M acetate buffer, pH 4.5, were immobilized onto the flow cell (FC) 1 and FC2 of the activated chip, respectively, at a flow rate of 5 μl/min to achieve a resonance response of 1000-2000 RU. The chip was then blocked by injection of 55 μl of ethanolamine-HCl, pH 8.5, and followed with washing 5 times with 50 mM NaOH-1 M NaCl. To measure the binding of anti-0722P mAbs to the O772P 3-repeat region immobilized to the chip, 30 μl of anti-0722P mAbs at varying concentrations in BIAcore running buffer (HBS-EP, Cat. #1001-080, BIAcore, Piscataway, N.J.) were injected over the sensor surface at a flow rate of 5 μl/min. Following completion of the injection phase, dissociation was monitored in BIAcore running buffer at the same flow rate for 360 seconds. The surface was regenerated between injections using 30 μl of 50 mM NaOH-1 M NaCl. Individual sensorgrams were analyzed using BIAevaluation.

Row | Binder | Kd [nM]
7 | B1 | 12
8 | B2 | 70
9 | B3 | 0.7

Biological target: T1, O772P 3-repeat recombinant protein
Assay: ELISA competition, plate-bound O772P 3-repeat; no competitor
Procedure: (§1) On the next day, the plates were washed with 200 μl 1×PBST (1× phosphate-buffered saline (PBS), 0.05% Tween 20) three times and blocked with 100 μl of 1×PBST containing 1% bovine serum albumin (BSA) for 2 hours at 37° C. […] After 1 hour incubation at 37° C., the plates were then washed with 1×PBST three times. For signal detection, 100 μl of HRP-conjugated sheep anti-mouse IgG (1:2000 dilution into 1×PBST+1% BSA, Amersham Biosciences) was added to each well and incubated for 1 hour at 37° C. The plates were washed again with 1×PBST three times. Finally, 100 μl¹ of a mixture of TMB substrate and H₂O₂ (1:1 ratio, KPL) was added into each well and the absorbance was measured at 405 nm with a plate reader (Molecular Devices Corp., Sunnyvale, Calif.). The assay was done in triplicate for each selected antibody and average values were calculated and presented. The percent inhibition compared to no competition was calculated for individual antibodies based on average values. Controls for blank and individual reagents were also included in each experiment.

Row | Binder | absorbance [OD]
10 | B1 | 0.619
11 | B2 | 0.856
12 | B3 | 1.29

Biological target: T1, O772P 3-repeat recombinant protein
Assay: ELISA competition, plate-bound O772P 3-repeat; competitor shed CA 125/O772P
Procedure: as §1

Row | Binder | absorbance w/shed CA 125/O772P competitor (25-fold w/w excess) [OD]
13 | B1 | 0.554
14 | B2 | 0.735
15 | B3 | 1.33
